Experimental data from the supplement of paper PMC7125110.
± gives the standard error. Variants at the floor of the assay were thinned out.

B1: glmS ribozyme (parent)
chain: AUAAAAGCGCCAGAACUACAGAAAUGUAGUUGACGAGGAGGAGGUUUAUCGAAUUUUCGGCGGAUGCCUCCAAA

Columns and labels:
Conditions in all cases: with glucosamine-6-phosphate
glucosamine-6-phosphate [1] = variants of: B1; assay: self-cleavage kobs at 40 uM GlcN6P; higher = faster cleavage; RNA array
Procedure, shortened: (§1)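 Barcoded glmS ribozyme variants on sequenced MiSeq chips were transcribed in situ by E. coli RNA polymerase and tracked through a hybridised Cy3 probe at 37 °C. Glucosamine-6-phosphate (40 μM to 10 mM) in HEPES/KCl/Mg(OAc)2 buffer was flowed in, and tiles were imaged over ~14 h. Signals were normalised to baseline and to non-cleaving reference variants; per-tile medians were fit to one- or two-exponential decays to give kobs. kcat and KM came from weighted Michaelis–Menten fits across concentrations.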

glucosamine-6-phosphate [2] = variants of: B1; assay: self-cleavage kobs at 2500 uM GlcN6P; higher = faster cleavage; RNA array
Procedure, shortened: as §1

glucosamine-6-phosphate [3] = variants of: B1; assay: self-cleavage kobs at 10000 uM GlcN6P; higher = faster cleavage; RNA array
Procedure, shortened: as §1

glucosamine-6-phosphate [4] = variants of: B1; assay: self-cleavage kobs at 160 uM GlcN6P; higher = faster cleavage; RNA array
Procedure, shortened: as §1

glucosamine-6-phosphate [5] = variants of: B1; assay: self-cleavage kobs at 640 uM GlcN6P; higher = faster cleavage; RNA array
Procedure, shortened: as §1

Variant	self-cleavage kobs at 40 uM GlcN6P (glucosamine-6-phosphate [1]) [s⁻¹]	self-cleavage kobs at 2500 uM GlcN6P (glucosamine-6-phosphate [2]) [s⁻¹]	self-cleavage kobs at 10000 uM GlcN6P (glucosamine-6-phosphate [3]) [s⁻¹]	self-cleavage kobs at 160 uM GlcN6P (glucosamine-6-phosphate [4]) [s⁻¹]	self-cleavage kobs at 640 uM GlcN6P (glucosamine-6-phosphate [5]) [s⁻¹]
AUAAAAGCGCCAGAACUACAGAAAUGUAGUUGACGAGGACGAGGUUAAUCGAAUUUUCGGUGGAUGCCUCCAAA [G40C U47A C61U]	< 1e-05	–	–	–	–
AUAAAAGCGCCAGAACUACAGAAAUGUAGUUGACGAGUAGGCGGUUUAUCGAUUUUUCGGCGGAUGCCUCCAAA [G38U A42C A53U]	< 1e-05	–	–	–	–
AUAAAAGCGGCAGAACUACAGAAAUGUAGUUGACGAGGAGGAGGUUAAUCGAAUUUUCGUUGGAUGCCUCCAAA [C10G U47A G60U C61U]	< 1e-05	–	–	–	–
AUAAAAGCGCCAGAACUACAGAAAUGUAGUUGACAAGGAGGAGGCUUAUCGAAUUUUCGGCGGAUGCCUCUAAA [G35A U45C C71U]	< 1e-05	< 1e-05	< 1e-05	–	–
AUAAAAGGGCCAGAACUACAGAAAUGUAGUUCACGAGGAGGAGGUUUAUCGAAUUUUCGGCUGAUGCCUCCAAA [C8G G32C G62U]	< 1e-05	–	< 1e-05	–	–
AUAAAAGCGCCAGAACUACAGAAAUGUAGUUGACGAGGAGGAGGUUUAUCGAAUUUUCGUCGGUUGCCUCCAAA [G60U A64U]	< 1e-05	< 1e-05	< 1e-05	< 1e-05	–
AUAAAAGCGCCAGAACUACAGAAAUGUAGUUGACGAGGAGGAGGUUUAUCUAAUUUUCGGCCGAUGCCUCCAAA [G51U G62C]	< 1e-05	< 1e-05	< 1e-05	–	< 1e-05
AUAAAAGCGCCAGAACUACAGAAAUGUAGCUGACUAGGAGAAGGUUAAUCGAAUUUACGGGGCAUGCCUACAAA [U30C G35U G41A U47A U57A C61G G63C C70A]	< 1e-05	–	< 1e-05	–	–
AUAAAAGCGCCAGAACUACAGAAAUGUAGUUGAAGAGGAGGAGGUUUCUCGAAUUUUCGGCGGAUGCCUCCAAA [C34A A48C]	< 1e-05	< 1e-05	< 1e-05	–	–
AUAAAAGCGCCAGAACUACAGAAAUGUAGUUGACGAGGAGAAGGUUUAUCGGAUUUUCAGCGGAUGCCUCCAAA [G41A A52G G59A]	< 1e-05	–	–	< 1e-05	< 1e-05
AUAAAAGCGCCAGAACUACAGAAAUGUAGCCGACGAGGAGGAGGUUUAUCGAAUUUUCGGCGGAUGCCUCCAAA [U30C U31C]	3.3e-05 ± 1.1e-05	0.00125 ± 0.00016	0.00328 ± 0.00041	0.000413 ± 7.4e-05	0.000788 ± 0.00016
AUAAAAGCGCCAUAAUUACAGAAAUGUAGUUGACGAGGAGGAGGUUUAUCGAAUUUUCGGCGGAUGCCUUCAAA [G13U C16U C70U]	5.86e-05 ± 1.3e-05	–	0.00165 ± 0.00029	–	–
AUAAAAUCGCCAGAACUACAGAAAUGUAGUUGACGAGGAGGAGGUUUAACGCAUUUUCGCUGGAUGCCUCCAAA [G7U U49A A52C G60C C61U]	< 1e-05	< 1e-05	< 1e-05	–	< 1e-05
AUAAAAGCGCCAGAGCUACAGAAAUGUAGUUGACGAGGAGGAGGUUUAUCGAGUUUUCGGCGGAUGCCUCCAAA [A15G A53G]	0.00127 ± 0.00016	0.022 ± 0.0053	0.0345 ± 0.008	0.00183 ± 0.00039	0.0109 ± 0.0017
AUAAAAGCGCCAGAACUACAGAAAUGUAGUUGACGAGGAGGAGGUUUAUCCAAUUUGCGGCGGAUGCCUCCAAA [G51C U57G]	< 1e-05	< 1e-05	–	< 1e-05	< 1e-05
AUAAAAGCGCCAGAAAUACAGAAAUGUAGUUCACGAGGAGCAGGUUUAUCGAAUUUUCGGCGGAUGCUUAUAAA [C16A G32C G41C C68U C70A C71U]	< 1e-05	–	–	–	–
AUAAAAGCGCCAGAACUACAGAAAUGUAGUUGAAGAGGAGGAGGUUUAUCGAAUUCUCGGCGAAUGCCUCCAAA [C34A U56C G63A]	< 1e-05	–	< 1e-05	–	–
AUAAAAGCGCCAGAACUACAGAAAUGUAGUUGACGAGGAGGAGGUUUAUCGAAUUUUCGGCGGCUUCGUCCAAA [A64C G66U C68G]	< 1e-05	< 1e-05	–	–	< 1e-05
AUAAAAGCGCCAGAACUACAGAAAUGUAGUUGACGAGGAGGAGGUUUAUCGAAUUCUCAGCGGAUGCCUCCAAA [U56C G59A]	< 1e-05	–	–	–	–
AUAAAAGCCCCAGAACUACAGAAAUGUAUUUGACGAGGAGGAGGUUUAUCGAAUUUUCGGCGGAUGCCACCAAA [G9C G29U U69A]	< 1e-05	< 1e-05	< 1e-05	< 1e-05	< 1e-05
AUAAAAGCGCCAGAACUACAGAAAUGUACUUGCCGAGGAGGAGGUUUAUCGAAUUUUCGGCGGAUGCCACCAAA [G29C A33C U69A]	< 1e-05	–	–	–	–
AUAAAAGCGCCAGAACUACAGAAAUGUAGUUGACCAGGAGGAGGUUUAUCGAAUUUUCGGUGGAUGCCUCCAAA [G35C C61U]	< 1e-05	< 1e-05	< 1e-05	< 1e-05	< 1e-05
AUAAAAGCGCCAGAACUACAGAAAUGUAGUUGACGAGGAGGAGGUUUAUCGACUUUCCGGCGGAUGCCUCCAAA [A53C U57C]	< 1e-05	4.1e-05 ± 1.6e-05	4.63e-05 ± 1.2e-05	–	–
AUAAACGCGCCAGAACUACAGAAAUGUAGUUGACGAGGAGGAGGCUUAUCGAAUUUUCGGCGAAUGCCUCCAAA [A6C U45C G63A]	< 1e-05	< 1e-05	–	–	–
AUAAAAGCGCCAGAAUUACAGAAAUGUAGUUGACGAGGAGGAGGUUCAUCGAAUUUUCGGCGGAUGCCUCCAAA [C16U U47C]	7.47e-05 ± 1.5e-05	0.00165 ± 0.00046	0.00228 ± 0.00034	–	–
AUAAAAGCGCCAGAACUACAGAAAUGUAGUUGACGAGGAGGAGGUUUAUGGAAUUUUCGGCGGAUGCCUAGAAA [C50G C70A C71G]	7.15e-05 ± 1.7e-05	–	6.95e-05 ± 1.6e-05	–	–
AUAAAAGUGCCAGAACUACAGAAAUGUAGUGGACGAGGAGGAGGUUUAUCGAAUUUUCGGCUGAUGCCUCCAAA [C8U U31G G62U]	< 1e-05	–	–	–	–
AUAAAAGCGCCAGAACUACAGAAAUGUAGUUGACGAGGAGGAGGUUUAUCCAAUUUCCGGCGGAUGCCUGCAAA [G51C U57C C70G]	< 1e-05	–	–	–	–
AUAAAAGCGCCAGAACUACAGAAAUGUAGUUAACGAGGAGGAGGUUGAUCGAAUUUGCGGCGGAUGCCUCCAAA [G32A U47G U57G]	< 1e-05	–	–	–	–
